The target in this test is fluorescein-labeled Fc-III (Fluorescein-Ahx-…-NH2). Briefly: other fluorescence titration.

“human IgG1 adalimumab biosimilar Exemptia (antibody)” had a fold increase of fluorescence intensity at 2.5 g/L of 1.8 fold and a limit of detection by fluorescence intensity of 0.0001 g/L.
Take murine IgG1 (antibody): the limit of detection by fluorescence intensity was determined as 0.1 g/L.
